Results published in patent US8975044B2, “Polynucleotides encoding for frizzled-binding agents and uses thereof” (OncoMed Pharmaceuticals, Inc., priority 2008, dated 2015).

Legend:
[1] = target: T1, FZD8 (Homo sapiens, UniProt Q9H461, G66A/L67A); test: Epitope mapping by FACS on FZD8 Fri domain variants on HEK293 cells; format: binding; settings: amino acids 66-67 mutated from GL to AA
T1 construct: N-terminus of the Fri domain of FZD8 in turn fused to the transmembrane domain and intracellular domain of CD4 protein; expressed in transfected cells; host or cells: HEK293
T1 sequence (Q9H461 28-158 G66A/L67A): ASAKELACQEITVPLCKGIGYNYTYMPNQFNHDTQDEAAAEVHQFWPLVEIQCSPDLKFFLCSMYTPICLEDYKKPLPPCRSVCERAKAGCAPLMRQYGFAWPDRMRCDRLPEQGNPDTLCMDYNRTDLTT
Method: To identify the FZD epitope recognized by the 18R8 IgG antibody, epitope mapping was performed. Flow cytometry analysis of cell surface expressed FZD was utilized to measure antibody binding. Mammalian expression plasmid vectors comprising a CMV promoter upstream of polynucleotides that encode an N-terminal signal sequence FLAG epitope tag fused to the N-terminus of the Fri domain of FZD8 in turn fused to the transmembrane domain and intracellular domain of CD4 protein were generated by standard recombinant technology. This expression construct allows expression of the FZD8 Fri domain on the cell surface, as well as expression of a FLAG epitope tag to monitor expression. Site-direct mutagenesis was then used to modify selected amino acids within the extracellular domain of FZD. HEK293 cells were co-transfected with expression vectors encoding the FZD and the transfection marker GFP. Forty-eight hours post-transfection, cells were collected in suspension and incubated on ice with anti-FZD antibody or control IgG to detect background antibody binding. The cells were washed and primary antibodies detected with anti-antibody secondary antibodies conjugated to a fluorescent chromophore. Labeled cells were then analyzed by flow cytometry to measure the binding of anti-FZD antibody to cell surface FZD.
Epitope mapping for the anti-FZD antibody 44R24 was performed in a manner similar to that described above in Example 5 for the antibodies 18R8 and 18R5. The ability of 44R24 to bind to a similar epitope as 18R8 was assessed by flow cytometry using a series of amino acid variants of FZD8 previously shown to disrupt binding of 18R8 (see Example 5 and FIGS. 6 and 7).

[2] = test system: Axin2; test: Axin2 mRNA level in A549 cells by qPCR; format: cell-based, human; settings: 5-0.008 μg/ml, 24 hours, relative to LZ1 control
Method: A549 cells are human lung carcinoma cells in which the Axin2 gene is highly expressed, translating endogenous activity of Wnt signaling. Axin2 is a well know Wnt target gene that responds to activation of the pathway by up-regulating its transcription and eventually down-regulating Wnt signaling through a feed-back loop mechanism. This system was used to test the impact of the anti-Fzd Abs on Axin2 mRNA levels by qPCR.
12-well plates were seeded with 30,000 A549 cells per well and grown for 3 days in DMEM+10% FBS. Antibodies were added at varying concentrations (5 1, 0.2, 0.04, 0.008 μg/ml) for 24 hours and total RNA was extracted from the cells. LZ1, a nonbinding antibody, was used as negative control at only the highest concentration.
30,000 A549 cells were seeded into 12-well plates and grown for 3 days in DMEM+10% FBS. Anti-FZD antibody 18R5 or 44R24 were added at varying concentrations (5, 1, 0.2, 0.04, 0.008 ug/ml), and LZ1, a nonbinding antibody, was used as a negative control at only the highest concentration. RNA was made 24 hours post treatment and then treated with Dnase.
Axin2 is known to be a robust target gene in Wnt signaling and its expression level was examined by doing a Taqman relative expression (ΔΔCT) assay using an Applied Biosystems 7900 HT machine. 50 ng of RNA was used per point in triplicate and a GUSB probe was used for endogenous control. […]

[3] = test system: OMP-PN13 cells; test: Tumorgenic potential of Muc16-positive cells sorted from 18R5-treated OMP-PN13 tumors; format: in vivo, NOD/SCID mice; settings: 75 cells per mouse, 10 mice; no tumor from Muc16+ cells, 7 of 10 from Muc16− cells
Method: OMP-PN13-bearing mice were treated with 18R5 according to the protocol described in Example 21. Mice were euthanized 12 days after initiation of the Ab treatment. Tumors were harvested and processed to obtain a single cell suspension using collagenase III to digest the tissues. Mouse stromal cells were stained with a biotinylated anti-H-2 Kd antibody and a biotinylated anti-CD45 antibody. They were then incubated with magnetic beads conjugated to streptavidin (Thermo MagnaBind) and depleted using a Dynal magnet. The resulting lin-depleted tumor cells were stained with an anti-Muc16 mAb detected with a PE-conjugated secondary Ab. Muc16− positive and Muc16− negative cells were sorted using an ARIA FACS machine ran by the DIVA software. Cells were re-injected subcutaneously in the left flank of NOD/SCID mice for comparison of their tumorgenic potentials. Each cell type was injected into 10 mice. Each mouse received 75 cells. Representative pictures of tumors resulting from the injection of Muc16− (upper panel) and Muc16+(lower panel) cells are shown in FIG. 52B. No tumor grew after injection of the Muc16+cells, while 7 of the 10 mice injected with the Muc16− cells developed tumors.

[4] = test system: Cytokeratin 7; test: Cytokeratin 7 immunohistochemistry on treated C28 tumors; format: in vivo, Nod-Scid mice; settings: tumors harvested after treatment, 15 mg/kg twice per week
Method: Following treatment of the animals in the experiment shown in FIG. 58, tumors were harvested, fixed in formalin, embedded in paraffin, and cut in 5 micron sections. Tumor sections were analyzed for Cytokeratin 7 expression, a marker of colon cell differentiation, by immunohistochemistry (Vectastain kit, Vector Labs). Cytokeratin 7 expression was seen to be elevated after treatment with 44R24 or 18R5 (FIG. 59).

B1: 18R5: human anti-FZD antibody; VH SEQ ID NO:10 (as 18R8), VL SEQ ID NO:14; binds FZD1, 2, 5, 7, 8 (antibody, V domains shown)
VH: EVQLVESGGGLVQPGGSLRLSCAASGFTFSHYTLSWVRQAPGKGLEWVSVISGDGSYTYYADSVKGRFTISSDNSKNTLYLQMNSLRAEDTAVYYCARNFIKYVFANWGQGTLVTVSS
VL: DIELTQPPSVSVAPGQTARISCSGDNIGSFYVHWYQQKPGQAPVLVIYDKSNRPSGIPERFSGSNSGNTATLTISGTQAEDEADYYCQSYANTLSLVFGGGTKLTVLG
modifications: 18R5/18R8 heavy chain variable region (VH); 18R5 light chain variable region (VL)
With B1 the “binding to FZD8 variant” value [1] was “reduced staining”, the “inhibition of basal level of axin2 gene expression” value [2] was “inhibit Axin2 basal levels” and the “tumorgenicity of 18R5-induced Muc16+ cells” value [3] was “non-tumorgenic”. The “Cytokeratin 7 expression” value [4] was “elevated”.

B2: 18R8: human anti-FZD antibody from phage display; VH SEQ ID NO:10, VL SEQ ID NO:12; binds FZD1, 2, 5, 7, 8 (antibody, V domains shown)
VH: EVQLVESGGGLVQPGGSLRLSCAASGFTFSHYTLSWVRQAPGKGLEWVSVISGDGSYTYYADSVKGRFTISSDNSKNTLYLQMNSLRAEDTAVYYCARNFIKYVFANWGQGTLVTVSS
VL: DIELTQPPSVSVAPGQTARISCSGDKLGKKYASWYQQKPGQAPVLVIYEKDNRPSGIPERFSGSNSGNTATLTISGTQAEDEADYYCSSFAGNSLEVFGGGTKLTVLG
modifications: 18R5/18R8 heavy chain variable region (VH); 18R8 light chain variable region (VL)
With B2 the “binding to FZD8 variant” value [1] was “similarly lost”.

B3: 44R24: anti-FZD5/8 IgG antibody, VH SEQ ID NO:85, VL SEQ ID NO:86; ATCC deposit no. PTA-10311 (antibody, V domains shown)
VH: EVQLVESGGGLVQPGGSLRLSCAASGFTFSSYYITWVRQAPGKGLEWVSTISYSSSNTYYADSVKGRFTISRDNSKNTLYLQMNSLRAEDTAVYYCARSIVFDYWGQGTLVTVSS
VL: DIELTQPPSVSVAPGQTARISCSGDALGNRYVYWYQQKPGQAPVLVIPSGIPERFSGSNSGNTATLTISGTQAEDEADYYCGSWDTRPYPKYVFGGGTKLTVLG
modifications: 44R24 VH; 44R24 VL
notes: ATCC deposit no; PTA-10311
B3 was tested, and the “inhibition of basal level of axin2 gene expression” value [2] was “inhibit Axin2 basal levels” and the “Cytokeratin 7 expression” value [4] was “elevated”.
